{"source": "patent US20210261650A1", "about": "(published 2021)", "key": {"[1]": {"target": "SARS-CoV-1 S protein expressed on ExpiCHO cells (SARS-CoV-1, UniProt P59594 14-1255)", "experiment": "flow"}, "[2]": {"target": "SARS-CoV-1 RBD (Sino Biological) (SARS-CoV-1, UniProt P59594 306-527)", "experiment": "BLI"}, "[3]": {"target": "SARS-CoV-2 Spike (S) protein, strain BetaCoV/Wuhan-Hu-1/2019, expressed on ExpiCHO cells (UniProt P0DTC2 14-1273)", "experiment": "flow"}}}
{"binder": "SARS-CoV-2 S304 mAb (antibody, V domains shown) VH: EVQLVESGGGLVQPGGSLRLSCAASGFTFSSYDMHWVRQTTGKGLEWVSTIGTAGDTYYPDSVKGRFTISREDAKNSLYLQMNSLRAGDTAVYYCARGDSSGYYYYFDYWGQGTLLTVSS VL: DIQMTQSPSSLSAAVGDRVTITCRASQSIGSYLNWYQQKPGKAPKLLIYAASSLQSGVPSRFSGSGSGTDFTLTISSLQPEDFAIYYCQQSYVSPTYTFGPGTKVDIK", "values": [{"measurement": "EC50", "setting": "[1]", "value": 11.4, "unit": "ng/mL"}]}
{"binder": "SARS-CoV-2 S303 mAb (antibody, V domains shown) VH: EVQLVESGGGLVKPGGSLRLSCAASGFTFLTYSMNWVRQTPGKRLQWVSAISGSGGATYYADSVKGRFTISRDNSKNTLYLQMNTVTADDTAIYFCARERDDIFPMGLNAFDIWGQGAMVIVSS VL: DIQMTQSPSTLSASVGDRVTITCRASQSISNWLAWYQQKPGKAPKLLIYKASSLESGVPSRFSGSGSGTEFTLTISSLQPDDSATYYCQQYDTYSWTFGQGTKVEIK", "values": [{"measurement": "EC50", "setting": "[1]", "value": 1.06, "unit": "ng/mL"}, {"measurement": "Kd", "setting": "[2]", "value": 0.869, "unit": "nM"}]}
{"binder": "SARS-CoV-2 S310 mAb (antibody, V domains shown) VH: QVQLVQSGAELKKPGSSVKVSCKASGGTFNSYSFNWVRQAPGQGLEWLGGIIPVLGTSNYAQKFQGRVAVTADEFTTTAYMELSSLRSEDTAVYYCATRTYDSSGYRPYYYGLDVWGQGTPVTVSS VL: QSALTQPASVSGSPGQSITISCTGTSSDVGSYNLVSWYQQRPGKAPELMIYEVTKRPSGLSNRFSGSKSGNTASLTISGLQAEDEADYYCCSYAGSDTVIFGGGTKVTVL", "values": [{"measurement": "EC50", "setting": "[1]", "value": 254, "unit": "ng/mL"}]}
{"binder": "SARS-CoV-2 S306 mAb (antibody, V domains shown) VH: QVQLVQSGAEVKKPGASVKVSCKASTYTFTSFGISWVRQAPGQGLEWMGWITTYSGDTNYAQKFQGRVTMTTDTSTNTAYMELRSLRSDDTAVYYCASDYFDSSGYYHSFDYWGQGTLVTVSS VL: EIVLTQSPDTLSLSPGERATLSCRASQSVSSYLAWYQQRPGQAPRLLIYDASKRATGIPARFSGSGSGTDFTLTISSLEPEDFAVYYCQQRSNWPPGCSFGQGTKVEIK", "values": [{"measurement": "EC50", "setting": "[1]", "value": 20.8, "unit": "ng/mL"}, {"measurement": "EC50", "setting": "[3]", "value": 1.42, "unit": "ng/mL"}]}
{"binder": "SARS-CoV-2 S315 mAb (antibody, V domains shown) VH: EVQLVESGGGLVQPGGSLRLSCAASGFTFSNYWMTWVRQAPGKGLEWVANIKQDGSEKYYVDSVKGRFTISRDNAKNSLYLQMNSLRAEDTAVYYCARDLWWNDQAHYYGMDVWGQGTTVTVSS VL: SYELTQPPSVSVSPGQTARITCSGDAFPNQYAYWYQQKPGQAPVMLIYKDSERPSGIPERFFGSSSGTTVTLTIRGVQAEDEADYYCQSADSSGTVFGGGTKLTVL", "values": [{"measurement": "EC50", "setting": "[1]", "value": 7.59, "unit": "ng/mL"}]}
